Data taken from patent US20170145086A1 (VISTERRA, published 2017).
Where “and” joins values, the source holds several entries; their conditions need not be identical. Equal values may be shown once.

Assays:
[1] = target: T1, HA-GCN4 hAPRIL (amino acid residues 105-250) (human, UniProt O75888 105-250); assay: cell-based or functional assay
T1 sequence: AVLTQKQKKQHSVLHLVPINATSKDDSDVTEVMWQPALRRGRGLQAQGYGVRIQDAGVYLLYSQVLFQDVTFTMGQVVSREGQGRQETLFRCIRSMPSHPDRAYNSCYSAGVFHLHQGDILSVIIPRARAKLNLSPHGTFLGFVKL

[2] = target: T1, HA-GCN4 hAPRIL (amino acid residues …); assay: blocking ELISA; blocked: human APRIL binding to BCMA-Fc
Method in brief: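 HA-GCN4-tagged human APRIL (15 ng/mL) preincubated 1 h at 30 °C with antibody (0.03–30 μg/mL), then added 1 h at 30 °C to plates coated with BCMA-Fc. Bound APRIL detected with anti-HA-HRP/TMB at 450 nm; IC₅₀ from 4-parameter fit of antibody titration curves.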

[3] = target: T1, HA-GCN4 hAPRIL (amino acid residues …); assay: blocking ELISA; blocked: human APRIL binding to TACI-Fc
[4] = target: T1, HA-GCN4 hAPRIL (amino acid residues …); assay: indirect ELISA on human APRIL; row printed 4504, legend paragraph 738 says 4540
[5] = target: T1, HA-GCN4 hAPRIL (amino acid residues …); assay: indirect ELISA on HA-GCN4 human APRIL, 3-parameter fit
Method: FIG. 5 depicts the binding of anti-APRIL antibodies to human APRIL. Relative binding of select anti-APRIL antibodies was measured by indirect ELISA. Select antibodies based on prior hybridoma screening were recombinantly produced (based on immunoglubin VH and VL gene sequencing) as described. HA-tagged GCN4 human APRIL R&D Systems was used as source of APRIL. Binding data was analyzed by non-linear regression using a three parameter fit.
(§1) Purified antibodies were further characterized for APRIL binding, APRIL species cross reactivity (human APRIL vs. mouse APRIL), and receptor blocking activity using TACI-Fc. For binding, an APRIL-based indirect ELISA was used to determine by first approximation the relative affinity of purified anti-APRIL antibodies to either human APRIL or mouse APRIL. ELISA method was as generally described above. […] Blocking and wash steps were completed as described. Binding of anti-APRIL antibodies to APRIL was quantified using an 8 point dilution of test antibody that spanned over a four log scale. Antibody binding to APRIL was detected using a rabbit anti-mouse IgG (H+L)-HRP conjugate (Jackson ImmunoResearch Laboratories). Antibody binding data was analyzed by non-linear regression analysis using a 3 parameter fit to determine max binding and apparent EC₅₀ values. […] Mouse specific antibody Apry-1-1 (Adipogen) was likewise used for quantification of antibody binding to mouse APRIL.

[6] = target: T1, HA-GCN4 hAPRIL (amino acid residues …); assay: blocking ELISA; blocked: human APRIL binding to human BCMA-Fc; set-up: concentration or dose not given beside the values
Method: (§2) Recombinant TACI-Fc or BCMA-Fc was coated on 96 well plates in 0.1 M carbonate-bicarbonate buffer (pH 9.6), overnight at 4° C. Plates were washed three times with 1×PBST (PBS+0.025% Tween 20) followed by blocking with 1% BSA in 1×PBS, 37° C. for 1 hour. All subsequent wash steps were carried out with 1×PBST. To assess antibody blocking, either 15 ng/mL or 50 ng/mL HA-GCN4-huAPRIL was preincubated with varying antibody concentrations ranging from 0.03-30 μg/mL in binding buffer comprised of 1% BSA and 0.025% Tween-20 in 1×PBS. Preincubation was carried out at 30° C. for 1 hour with mixing. Antibody-APRIL premix with 50 ng/mL APRIL or 15 ng/mL APRIL was then added to TACI-Fc coated or BCMA-Fc coated plates, respectively, and incubated for an additional hour at 30° C. HA-tagged APRIL binding to either receptor was quantified using a goat polyclonal anti-HA tag-HRP antibody (Abcam) added at a 1:10000 dilution followed by colorimetric development using 100 μl/well of freshly prepared TMB substrate (KPL) carried out for up to 30 minutes at room temperature before quenching enzymatic reaction by the addition of 1N sulfuric acid. ELISA signal was quantified by absorbance at 450 nm. ELISA data was analyzed by non-linear regression. IC₅₀ values were calculated based on a 4 parameter fit of antibody titration curves. […] Non-blocking antibodies Aprly-1 or Aprly-5 (Enzo Biosciences) were used as negative controls. Mouse specific, blocking antibody aprily-1-1 (Adipogen) was generally used as a positive control in experiments using mouse APRIL (HA-GCN4-mAPRIL).

[7] = target: T1, HA-GCN4 hAPRIL (amino acid residues …); assay: blocking ELISA; blocked: human APRIL binding to human TACI-Fc; set-up: concentration or dose not given beside the values
Method: as §2

[8] = target: T1, HA-GCN4 hAPRIL (amino acid residues …); assay: blocking ELISA, 4-parameter fit; blocked: human APRIL binding to human BCMA-Fc
Method: as §2

[9] = target: T1, HA-GCN4 hAPRIL (amino acid residues …); assay: blocking ELISA, 4-parameter fit; blocked: human APRIL binding to human TACI-Fc
Method: as §2

[10] = target: T1, HA-GCN4 hAPRIL (amino acid residues …); assay: indirect ELISA on coated HA-GCN4 human APRIL; EC50 from non-linear regression
Text: as §1

B1: monoclonal antibody 4540 (antibody, V domains shown)
VH: QVQLQQSGPELVKPGASVKISCKASGYTFADYYINWVKQRPGQGLEWIGWIFPGSGSTYYNEKFKGKATLTVDKSSSTAYMLLSSLTSEDSAVYFCARGDSGRAMDYWGQGTSVTVSS
VL: DIQMTQSPSSLSASLGGKVTITCKASQDINKYIAWYQHKPGKGPRLLIHYTSTLQSGIPSRFSGSGSGRDYSFSISNLEPEDNATYYCLQYDNLLTFGAGTKLELK
notes: mouse-derived
In the case of B1, the “IC50 (inhibition of APRIL-mediated BCMA NFκB signaling)” value [1] is reported as about 0.81 nM, the “IC50 (inhibition of APRIL-mediated TACI NFκB signaling)” value [1] is reported as about 2.25 nM and the IC50 [2] is reported as 0.67 nM. The “Relative Activity (normalised to 2419)” value [2] was 2.85, the IC50 [3] was 0.4 nM and the “Relative Activity (normalised to 2419)” value [3] was 1.45. For the same binder, the EC50 [4] was 0.00139 nM.

B2: monoclonal antibody 3530 (antibody, mouse IgG2, V domains shown)
VH: QVQLQQSGAELVRPGASVKLSCKASGYTFTDHEMHWVRQTPVHGLEWIGVIDPDTGDTTYNQKFKGKATLTADKSSSTAYMDLRSLTSEDSAVFYCTRWTGGDYWGHGTTLTVSS
VL: DAVMTQTPLSLSVTIGQPASISCKSSQSLLYSDGKTYLNWFQQRPGQSPKRLMYQVSKLDPGIPDRFSGSGSETDFTLKISRVEAEDLGVYYCLQGTYYPYTFGSGTKLEIK
In the case of B2, the EC50 [5] is reported as 0.058 µg/mL and 0.392 nM, the “% Inhibition” value [6] is reported as 35% and the “% Inhibition” value [7] is reported as 81%. The IC50 [8] was 0.68 nM and the IC50 [9] was 4.95 nM.

B3: monoclonal antibody 2218 (antibody, mouse IgG2, V domains shown)
VH: DVQLQESGPGLVKPSQSLSLTCSVTGYSITSGYYWNWIRQFPGNKLEWMGYISYDGYNNYNPSLKNRISITRDTSKNQFFLKLNSVTTEDTATYYCANYYDYEDWYFGVWGTGTTVTVSS
VL: DIVLTQSPASLAMSLGKRATISCRASESVSIIGTNSIHWYQQKPGQPPKLLIYHASNLETGVPARFSGSGSRTDFTLTIDPVEEDDVAIYYCLQSRKIPYTFGGGTKLEIK
With B3 the EC50 [5] was 0.0126 µg/mL and 0.085 nM, the EC50 [10] was under 0.2 nM and the “% Inhibition” value [6] was 100%. For the same binder, the “% Inhibition” value [7] was 91%, the IC50 [8] was 0.22 nM and the IC50 [9] was 0.74 nM.
